Experimental data from patent US20210045419A1 (UNIVERSITY OF MANITOBA, published 2021).

Target: T1, bitter taste receptor T2R4 (UniProt Q9NYW5 1-299, limits assumed)
T1 sequence (looked up): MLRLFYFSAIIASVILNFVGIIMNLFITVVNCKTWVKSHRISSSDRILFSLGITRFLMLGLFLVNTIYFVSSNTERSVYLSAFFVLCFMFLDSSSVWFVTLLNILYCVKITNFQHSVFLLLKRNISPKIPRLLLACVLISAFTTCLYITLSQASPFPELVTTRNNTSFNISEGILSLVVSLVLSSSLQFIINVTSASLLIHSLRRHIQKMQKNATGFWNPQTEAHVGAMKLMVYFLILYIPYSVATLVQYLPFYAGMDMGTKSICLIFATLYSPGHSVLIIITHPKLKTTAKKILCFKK
Experiment: cell-based or functional assay

## AGDDAPRAVF [AGDDAPRAVF (SEQ ID No:5)]
  IC50, peptide and quinine (1 mM) competition calcium mobilization assay on T2R4-expressing HEK293T cells: 85 µM
